As usually defined, the IC50 is the concentration at which inhibition is half-maximal. One may read the IC90 as the point of the concentration-response curve where the effect stands at 90%.

In test [1] the target is biotinylated human angiopoietin 2 (human, UniProt O15123, biotin). Briefly: HTRF neutralization; biotin-hAng2 vs huTie-2-Fc-APC. Background: TR-FRET usually uses a lanthanide donor and a delayed reading to cut background.
Test [2] deals with biotinylated human angiopoietin 1 (human, UniProt Q15389, biotin). The test is described as follows: HTRF neutralization; biotin-hAng1 vs huTie-2-Fc-APC.

B1: H5L7 (antibody, V domains shown)
VH: EVQLVQSGGGVVQPGRSLRLSCAASGFTFSSYGMHWVRQAPGKGLEWVSYISSSGSTIYYADSVKGRFTISRDNAKNSLYLQMNSLRAEDTAVYYCARDLLDYDIWTGYGYWGQGTLVTVSS
VL: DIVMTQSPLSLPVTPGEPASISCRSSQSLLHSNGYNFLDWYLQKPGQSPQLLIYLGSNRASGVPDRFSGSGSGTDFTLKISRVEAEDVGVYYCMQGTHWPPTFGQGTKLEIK
For B1, in test [1], half-maximal inhibition (IC50) was put at 0.07 nM and the IC90 stood at 0.23 nM. Also, in test [2], half-maximal inhibition (IC50) was put at 0.07 nM and the IC90 was determined as 0.42 nM.

B2: H10L7 (antibody, V domains shown)
VH: EVQLVQSGGGVVQPGRSLRLSCAASGFTFSSYGMHWVRQAPGKGLEWVSYISSSGSTIYYADSVKGRFTISRDNAKNSLYLQMNSLRAEDTAVYYCARDLLDYDILTGYGLWGQGTLVTVSS
VL: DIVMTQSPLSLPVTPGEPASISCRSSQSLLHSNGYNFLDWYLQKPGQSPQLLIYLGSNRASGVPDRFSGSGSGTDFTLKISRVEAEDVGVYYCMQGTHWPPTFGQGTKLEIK
In test [1], B2 had an IC50 of 0.06 nM and an IC90 of 0.19 nM. In test [2], the IC50 was 0.15 nM and the IC90 was 2.2 nM.

B3: H4L4 (antibody, V domains shown)
VH: EVQLVQSGGGVVQPGRSLRLSCAASGFTFSSYGMHWVRQAPGKGLEWVSYISSSGSTIYYADSVKGRFTISRDNAKNSLYLQMNSLRAEDTAVYYCARDLLDYDLLTGYGYWGQGTLVTVSS
VL: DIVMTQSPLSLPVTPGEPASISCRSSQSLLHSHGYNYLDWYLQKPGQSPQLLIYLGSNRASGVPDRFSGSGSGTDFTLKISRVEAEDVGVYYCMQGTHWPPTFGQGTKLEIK
For the molecule B3, in test [1], the IC50 is 0.06 nM and it took 0.16 nM to reach the 90% level (IC90). In test [2], this molecule came in with an IC50 of 0.87 nM and an IC90 of 8.2 nM.

B4: H3L7 (antibody, V domains shown)
VH: EVQLVQSGGGVVQPGRSLRLSCAASGFTFSSYGMHWVRQAPGKGLEWVSYISSSGSTIQYADSVKGRFTISRDNAKNSLYLQMNSLRAEDTAVYYCARDLLDYDILTGYGYWGQGTLVTVSS
VL: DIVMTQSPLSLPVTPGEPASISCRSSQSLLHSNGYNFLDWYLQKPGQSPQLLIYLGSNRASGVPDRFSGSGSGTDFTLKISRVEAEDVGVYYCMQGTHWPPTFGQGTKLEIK
Regarding B4, in test [1], inhibition was half-maximal at 0.06 nM (IC50) and the IC90 is 0.23 nM. Moreover, in test [2], 0.58 nM corresponded to half-maximal inhibition (IC50) and the concentration for an effect of 90% (IC90) is 7.1 nM.

B5: H2L7 (antibody, V domains shown)
VH: EVQLVQSGGGVVQPGRSLRLSCAASGFTFSSYGMHWVRQAPGKGLEWVSYISSSGSTIEYADSVKGRFTISRDNAKNSLYLQMNSLRAEDTAVYYCARDLLDYDILTGYGYWGQGTLVTVSS
VL: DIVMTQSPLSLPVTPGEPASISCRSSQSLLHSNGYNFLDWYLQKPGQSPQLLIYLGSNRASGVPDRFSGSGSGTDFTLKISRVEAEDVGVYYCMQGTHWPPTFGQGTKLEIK
In test [1], B5 gave an IC50 of 0.06 nM and an IC90 of 0.2 nM. In addition, in test [2], the IC50 came to 0.33 nM and the IC90 was found to be 3.6 nM.

B6: H4L7 (antibody, V domains shown)
VH: EVQLVQSGGGVVQPGRSLRLSCAASGFTFSSYGMHWVRQAPGKGLEWVSYISSSGSTIYYADSVKGRFTISRDNAKNSLYLQMNSLRAEDTAVYYCARDLLDYDLLTGYGYWGQGTLVTVSS
VL: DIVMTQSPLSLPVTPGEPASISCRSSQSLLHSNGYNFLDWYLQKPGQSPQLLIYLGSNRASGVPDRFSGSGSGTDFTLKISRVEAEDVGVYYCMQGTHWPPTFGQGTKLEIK
For the molecule B6, the values for the IC50 in test [1] and in test [2] were 0.06 nM and 0.23 nM, respectively. Also, the IC90 in test [1] came out at 0.22 nM; in test [2] it was 2.8 nM.

B7: H11L7 (antibody, V domains shown)
VH: EVQLVQSGGGVVQPGRSLRLSCAASGFTFSSYGMHWVRQAPGKGLEWVSYISSSGSTIYYADSVKGRFTISRDNAKNSLYLQMNSLRAEDTAVYYCARDLLDYDILTGYGMWGQGTLVTVSS
VL: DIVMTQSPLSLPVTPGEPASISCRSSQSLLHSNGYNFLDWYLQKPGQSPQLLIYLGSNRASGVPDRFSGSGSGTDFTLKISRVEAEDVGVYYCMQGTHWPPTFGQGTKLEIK
For the molecule B7, in test [1], the IC50 is 0.06 nM and the IC90 came to 0.2 nM. Moreover, in test [2], half-maximal inhibition (IC50) required 0.15 nM and the IC90 came out at 1.2 nM.

B8: H5L1 (antibody, V domains shown)
VH: EVQLVQSGGGVVQPGRSLRLSCAASGFTFSSYGMHWVRQAPGKGLEWVSYISSSGSTIYYADSVKGRFTISRDNAKNSLYLQMNSLRAEDTAVYYCARDLLDYDIWTGYGYWGQGTLVTVSS
VL: not shown
The molecule B8 came in with an IC50 in test [1] of 0.06 nM.

B9: H4L12 (antibody, V domains shown)
VH: EVQLVQSGGGVVQPGRSLRLSCAASGFTFSSYGMHWVRQAPGKGLEWVSYISSSGSTIYYADSVKGRFTISRDNAKNSLYLQMNSLRAEDTAVYYCARDLLDYDLLTGYGYWGQGTLVTVSS
VL: not shown
In test [1], B9 yielded an IC50 of 0.06 nM and an IC90 of 0.21 nM. In test [2], half-maximal inhibition (IC50) required 0.63 nM and the IC90 stood at 8.7 nM.

B10: H6L7 (antibody, V domains shown)
VH: EVQLVQSGGGVVQPGRSLRLSCAASGFTFSSYGMHWVRQAPGKGLEWVSYISSSGSTIYYADSVKGRFTISRDNAKNSLYLQMNSLRAEDTAVYYCARDLLDYDIYTGYGYWGQGTLVTVSS
VL: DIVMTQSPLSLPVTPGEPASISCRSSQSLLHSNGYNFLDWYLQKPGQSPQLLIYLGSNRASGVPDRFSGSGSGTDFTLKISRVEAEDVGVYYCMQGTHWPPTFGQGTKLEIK
In the case of B10, in test [1], the IC50 is 0.06 nM and the IC90 is 0.19 nM. In test [2], this molecule came in with an IC50 of 0.06 nM and a 90% effect concentration (IC90) of 0.49 nM.

B11: H6L8 (antibody, V domains shown)
VH: EVQLVQSGGGVVQPGRSLRLSCAASGFTFSSYGMHWVRQAPGKGLEWVSYISSSGSTIYYADSVKGRFTISRDNAKNSLYLQMNSLRAEDTAVYYCARDLLDYDIYTGYGYWGQGTLVTVSS
VL: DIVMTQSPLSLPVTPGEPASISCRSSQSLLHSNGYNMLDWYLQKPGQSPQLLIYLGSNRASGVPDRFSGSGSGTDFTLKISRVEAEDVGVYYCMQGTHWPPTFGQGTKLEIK
Turning to B11, in test [1], the IC50 was found to be 0.05 nM and the 90% effect concentration (IC90) turned out to be 0.19 nM. In addition, in test [2], the midpoint of inhibition, the IC50, lay at 0.57 nM and the IC90 amounted to 7.7 nM.

B12: H5L4 (antibody, V domains shown)
VH: EVQLVQSGGGVVQPGRSLRLSCAASGFTFSSYGMHWVRQAPGKGLEWVSYISSSGSTIYYADSVKGRFTISRDNAKNSLYLQMNSLRAEDTAVYYCARDLLDYDIWTGYGYWGQGTLVTVSS
VL: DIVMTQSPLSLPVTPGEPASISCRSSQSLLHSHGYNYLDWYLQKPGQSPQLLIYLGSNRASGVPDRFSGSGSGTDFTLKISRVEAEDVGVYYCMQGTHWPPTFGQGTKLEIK
In test [1], B12 had an IC50 of 0.07 nM and an IC90 of 0.21 nM. Further, in test [2], the IC50 is 0.6 nM and it took 11 nM to reach the 90% level (IC90).

B13: H4L11 (antibody, V domains shown)
VH: EVQLVQSGGGVVQPGRSLRLSCAASGFTFSSYGMHWVRQAPGKGLEWVSYISSSGSTIYYADSVKGRFTISRDNAKNSLYLQMNSLRAEDTAVYYCARDLLDYDLLTGYGYWGQGTLVTVSS
VL: not shown
In test [1], B13 came in with an IC50 of 0.05 nM and an IC90 of 0.17 nM. In test [2], this molecule yielded an IC50 of 7.3 nM and an IC90 of 107 nM.

B14: H4L6 (antibody, V domains shown)
VH: EVQLVQSGGGVVQPGRSLRLSCAASGFTFSSYGMHWVRQAPGKGLEWVSYISSSGSTIYYADSVKGRFTISRDNAKNSLYLQMNSLRAEDTAVYYCARDLLDYDLLTGYGYWGQGTLVTVSS
VL: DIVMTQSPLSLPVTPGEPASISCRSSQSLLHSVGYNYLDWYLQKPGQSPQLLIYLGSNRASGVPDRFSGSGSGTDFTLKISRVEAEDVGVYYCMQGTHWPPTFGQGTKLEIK
As for B14, in test [1], the IC50 amounted to 0.06 nM and the IC90 stood at 0.2 nM. Also, in test [2], half-maximal inhibition (IC50) required 0.74 nM and the IC90 was determined as 15 nM.

B15: H5L6 (antibody, V domains shown)
VH: EVQLVQSGGGVVQPGRSLRLSCAASGFTFSSYGMHWVRQAPGKGLEWVSYISSSGSTIYYADSVKGRFTISRDNAKNSLYLQMNSLRAEDTAVYYCARDLLDYDIWTGYGYWGQGTLVTVSS
VL: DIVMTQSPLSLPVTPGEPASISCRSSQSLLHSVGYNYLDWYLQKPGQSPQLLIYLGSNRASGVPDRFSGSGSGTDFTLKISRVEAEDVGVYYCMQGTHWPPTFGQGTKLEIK
Turning to B15, the IC50 in test [1] was 0.07 nM; in test [2], 0.32 nM. Also, the IC90 in test [1] was found to be 0.23 nM; in test [2], 3.6 nM.

B16: H6L6 (antibody, V domains shown)
VH: EVQLVQSGGGVVQPGRSLRLSCAASGFTFSSYGMHWVRQAPGKGLEWVSYISSSGSTIYYADSVKGRFTISRDNAKNSLYLQMNSLRAEDTAVYYCARDLLDYDIYTGYGYWGQGTLVTVSS
VL: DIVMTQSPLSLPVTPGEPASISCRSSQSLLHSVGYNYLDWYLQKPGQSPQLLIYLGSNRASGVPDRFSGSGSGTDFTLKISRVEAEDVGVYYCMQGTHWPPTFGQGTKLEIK
For B16, the IC50 in test [1] was found to be 0.06 nM; in test [2] it was 0.66 nM. Further, the IC90 in test [1] was 0.2 nM; in test [2], 10 nM.

B17: H4L2 (antibody, V domains shown)
VH: EVQLVQSGGGVVQPGRSLRLSCAASGFTFSSYGMHWVRQAPGKGLEWVSYISSSGSTIYYADSVKGRFTISRDNAKNSLYLQMNSLRAEDTAVYYCARDLLDYDLLTGYGYWGQGTLVTVSS
VL: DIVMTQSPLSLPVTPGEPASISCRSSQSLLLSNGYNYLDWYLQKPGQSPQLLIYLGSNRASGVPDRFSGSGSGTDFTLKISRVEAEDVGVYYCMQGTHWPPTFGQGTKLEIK
Turning to B17, the results for the IC50 in test [1] and in test [2] were 0.06 nM and 0.66 nM, respectively. Also, the IC90 in test [1] was determined as 0.19 nM; in test [2] it was 6.8 nM.

B18: H5L9 (antibody, V domains shown)
VH: EVQLVQSGGGVVQPGRSLRLSCAASGFTFSSYGMHWVRQAPGKGLEWVSYISSSGSTIYYADSVKGRFTISRDNAKNSLYLQMNSLRAEDTAVYYCARDLLDYDIWTGYGYWGQGTLVTVSS
VL: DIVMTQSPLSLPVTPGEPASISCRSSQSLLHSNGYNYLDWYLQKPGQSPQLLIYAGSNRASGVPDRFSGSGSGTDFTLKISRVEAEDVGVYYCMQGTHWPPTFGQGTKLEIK
B18: the IC50 in test [1] was 0.19 nM; in test [2], 18 nM. Besides, the IC90 in test [1] stood at 1.57 nM; in test [2] it was 181 nM.

B19: H5L11 (antibody, V domains shown)
VH: EVQLVQSGGGVVQPGRSLRLSCAASGFTFSSYGMHWVRQAPGKGLEWVSYISSSGSTIYYADSVKGRFTISRDNAKNSLYLQMNSLRAEDTAVYYCARDLLDYDIWTGYGYWGQGTLVTVSS
VL: not shown
B19: in test [1], the IC50 worked out at 0.08 nM and the IC90 came out at 0.25 nM. Besides, in test [2], the IC50 is 0.97 nM and the IC90 stood at 18 nM.

B20: H4L13 (antibody, V domains shown)
VH: EVQLVQSGGGVVQPGRSLRLSCAASGFTFSSYGMHWVRQAPGKGLEWVSYISSSGSTIYYADSVKGRFTISRDNAKNSLYLQMNSLRAEDTAVYYCARDLLDYDLLTGYGYWGQGTLVTVSS
VL: not shown
In test [1], B20 showed an IC50 of 0.06 nM and an IC90 of 0.19 nM. In test [2], this molecule came in with an IC50 of 0.15 nM and an IC90 of 1.6 nM.

B21: H5L8 (antibody, V domains shown)
VH: EVQLVQSGGGVVQPGRSLRLSCAASGFTFSSYGMHWVRQAPGKGLEWVSYISSSGSTIYYADSVKGRFTISRDNAKNSLYLQMNSLRAEDTAVYYCARDLLDYDIWTGYGYWGQGTLVTVSS
VL: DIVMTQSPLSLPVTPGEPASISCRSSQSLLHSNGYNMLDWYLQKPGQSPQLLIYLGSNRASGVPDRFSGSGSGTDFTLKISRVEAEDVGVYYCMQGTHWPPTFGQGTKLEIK
B21: in test [1], 0.07 nM corresponded to half-maximal inhibition (IC50) and the IC90 came to 0.21 nM. In test [2], this molecule yielded a half-maximal inhibitory concentration (IC50) of 0.37 nM and an IC90 of 3.6 nM.

B22: H5L12 (antibody, V domains shown)
VH: EVQLVQSGGGVVQPGRSLRLSCAASGFTFSSYGMHWVRQAPGKGLEWVSYISSSGSTIYYADSVKGRFTISRDNAKNSLYLQMNSLRAEDTAVYYCARDLLDYDIWTGYGYWGQGTLVTVSS
VL: not shown
Molecule B22 registered an IC50 in test [1] of 0.07 nM.
